Assay results: the supplement of paper PMC7125110
± gives the standard error. For some of these results: Fewer inactive variants are shown than the library holds.

B1: glmS ribozyme (parent)
chain: AUAAAAGCGCCAGAACUACAGAAAUGUAGUUGACGAGGAGGAGGUUUAUCGAAUUUUCGGCGGAUGCCUCCAAA

Tests used:
Conditions in all cases: with glucosamine-6-phosphate
glucosamine-6-phosphate [1] = variants of: B1; experiment: kcat; higher = faster cleavage; RNA array
In short: (§1)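 Over ~14 h at 37 °C, tiles were imaged as glucosamine-6-phosphate (40 μM to 10 mM) in HEPES/KCl/Mg(OAc)2 buffer flowed across sequenced MiSeq chips. The chips carried barcoded ribozyme variants transcribed in situ by E. coli RNA polymerase and tracked with a hybridised Cy3 probe. After normalisation to baseline and to non-cleaving reference variants, one- or two-exponential decay fits of per-tile medians gave kobs. kcat and KM followed from weighted Michaelis–Menten fits across concentrations.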

glucosamine-6-phosphate [2] = variants of: B1; experiment: self-cleavage kobs at 640 uM GlcN6P; higher = faster cleavage; RNA array
In short: as §1

glucosamine-6-phosphate [3] = variants of: B1; experiment: self-cleavage kobs at 40 uM GlcN6P; higher = faster cleavage; RNA array
In short: as §1

glucosamine-6-phosphate [4] = variants of: B1; experiment: self-cleavage kobs at 160 uM GlcN6P; higher = faster cleavage; RNA array
In short: as §1

glucosamine-6-phosphate [5] = variants of: B1; experiment: self-cleavage kobs at 2500 uM GlcN6P; higher = faster cleavage; RNA array
In short: as §1

glucosamine-6-phosphate [6] = variants of: B1; experiment: self-cleavage kobs at 10000 uM GlcN6P; higher = faster cleavage; RNA array
In short: as §1

glucosamine-6-phosphate [7] = variants of: B1; experiment: KM; higher = weaker cofactor use; RNA array
In short: as §1

| Variant | kcat (glucosamine-6-phosphate [1]) [s⁻¹] | self-cleavage kobs at 640 uM GlcN6P (glucosamine-6-phosphate [2]) [s⁻¹] | self-cleavage kobs at 40 uM GlcN6P (glucosamine-6-phosphate [3]) [s⁻¹] | self-cleavage kobs at 160 uM GlcN6P (glucosamine-6-phosphate [4]) [s⁻¹] | self-cleavage kobs at 2500 uM GlcN6P (glucosamine-6-phosphate [5]) [s⁻¹] | self-cleavage kobs at 10000 uM GlcN6P (glucosamine-6-phosphate [6]) [s⁻¹] | KM (glucosamine-6-phosphate [7]) [µM] |
| --- | --- | --- | --- | --- | --- | --- | --- |
| C58G G62U C70U | 2.66e-05 ± 1.1e-05 | 4.86e-05 ± 2.1e-05 | – | – | – | – | – |
| C61G C71A | 1.34e-05 ± 3.8e-06 | – | – | – | – | – | – |
| G66A C70U | 0.0162 ± 0.0065 | 0.00577 ± 0.00081 | 0.00075 ± 0.0001 | 0.00153 ± 0.00021 | 0.00738 ± 0.0024 | 0.0185 ± 0.0034 | – |
| G60A C70A | 1.05e-05 ± 2.5e-06 | – | < 1e-05 | – | – | – | – |
| G62A C70G | 4.83e-05 ± 2.2e-05 | 4.71e-05 ± 1.5e-05 | < 1e-05 | – | – | < 1e-05 | – |
| G62A C70A | 4.15e-05 ± 2e-05 | 7.27e-05 ± 2.4e-05 | < 1e-05 | – | – | – | – |
| G62A | < 1e-05 | – | < 1e-05 | – | – | < 1e-05 | – |
| C61A U65G C67U | 2.68e-05 ± 7.3e-06 | – | – | – | – | – | – |
| G60C C71A | < 1e-05 | – | < 1e-05 | – | – | – | – |
| G66C C71U | 0.000716 ± 9.4e-05 | 0.000335 ± 5e-05 | – | 9.54e-05 ± 1.7e-05 | 0.000494 ± 9.6e-05 | 0.000631 ± 0.00011 | 975 ± 220 |
| C67A C71A | 0.000401 ± 8.3e-05 | 0.00013 ± 4.6e-05 | 4.21e-05 ± 1.2e-05 | – | 0.000277 ± 4.8e-05 | 0.000361 ± 4.3e-05 | – |
| C61G G62C A64G U65A G66U C67G | 1.06e-05 ± 1.8e-06 | < 1e-05 | – | – | – | < 1e-05 | – |
| C61U | 1.4e-05 ± 3.1e-06 | – | < 1e-05 | – | 2.23e-05 ± 2.6e-06 | 1.19e-05 ± 1.4e-06 | – |
| C61A | < 1e-05 | – | – | – | – | – | – |
| C61U G63C | < 1e-05 | – | – | – | < 1e-05 | – | – |
| A64C C71U | 0.00012 ± 8.4e-06 | – | – | – | 6.58e-05 ± 1.3e-05 | 9.59e-05 ± 1.1e-05 | 2400 ± 500 |
| G59A C70A | 1.52e-05 ± 3.7e-06 | – | – | – | – | – | – |
| C67G C68G | 4.53e-05 ± 9.2e-06 | 5.01e-05 ± 6.5e-06 | – | 6.2e-05 ± 7.7e-06 | 3.7e-05 ± 4.7e-06 | – | – |
| A64G C71A | 0.000799 ± 8.2e-05 | 0.000265 ± 3.8e-05 | – | 7.29e-05 ± 1.4e-05 | 0.00059 ± 7.4e-05 | 0.000652 ± 7.6e-05 | 1410 ± 280 |
| A64U C70U | 0.00015 ± 1.9e-05 | 5.13e-05 ± 5.8e-06 | – | – | 7.86e-05 ± 8.2e-06 | 0.000139 ± 9.8e-06 | 1510 ± 510 |
| G60C G66A | < 1e-05 | < 1e-05 | – | – | – | – | – |
